Where two headings read alike, the source gives them in different places.
Key:
[1] = Stability testing of peptides at pH 4.5 (sodium acetate buffer), HPLC Method B; assay type: physicochemical
Protocol: (§1) Analytical high performance liquid chromatography (HPLC) was performed on a Dionex UltiMate 3000 HPLC system with a Bruker amazon SL ion trap mass spectrometer and detection by UV (diode array detector, 214, 254, and 280 nm) and electrospray ionization (ESI) MS using a Penomenex Kinetex C18 column (50×3.0 mm, 2.6 μm particle size, 100 Åpore size) and a Penomenex Kinetex Biphenyl column (50×4.6 mm, 2.6 μm particle size, 100 Åpore size). A gradient of H2O/CH3CN/0.05% HCOOH was used at a flow rate of 1.5 mL/min.
Method B: Detection at 214 nm
For the peptides stored in sodium acetate buffer (pH 4.5, 100 mM) the solutions were analyzed by HPLC (analytical HPLC Method B) after 0 h, and 1 day incubation at 4° C. and 23° C.
(§2) The “% Purity” at each time point is defined by the % Relative purity at time point “n” (n=1 day, 7 days, 14 days in pH 7.4 PBS and 1 day at pH 4.5 NaAc) in relation to the % Relative purity at t0 following the equation:
% Purity at tn=[(% Relative purity tn)×100)]/% Relative purity t0
Samples were incubated for 1 day at 23° C. and 4° C. and were analyzed using HPLC Method B.

[2] = Stability testing of peptides at pH 7.4 (PBS), HPLC Method A; assay type: physicochemical
Protocol: as §1
Method A: Detection at 214 nm column: Penomenex Kinetex C18 (50×3.0 mm, 2.6 μm particle size, 100 Åpore size) solvent: H2O+0.05% HCOOH: CH3CN+0.05% HCOOH (flow 1.5 ml/min) […]
(§3) For stability testing, 500 μmol pure compound was dissolved in 1 mL PBS buffer (pH 7.4), or 1 mL sodium acetate buffer (pH 4.5, 100 mM). For the peptides stored in PBS, the solutions were stored for 14 days at 4° C. and 23° C. At 0 h, 1 day, 7 days and 14 days, the solutions were analyzed by HPLC (analytical HPLC Method A and Method B).
as §2
(§4) % Purity at tn=[(% Relative purity tn)×100)]/% Relative purity t0 […]
Samples were incubated up to 14 days at 23° C. and 4° C. and were analyzed using HPLC Method A.

[3] = Stability testing of peptides at pH 7.4 (PBS), HPLC Method B; assay type: physicochemical
Protocol: as §1
Method B: Detection at 214 nm column: Penomenex Kinetex Biphenyl column (50×4.6 mm, 2.6 μm particle size, 100 Åpore size) solvent: H2O+0.05% HCOOH: CH3CN+0.05% HCOOH (flow 1.5 ml/min) […]
as §3, §2, §4
Samples were incubated up to 14 days at 23° C. and 4° C. and were analyzed using HPLC Method B.

[4] = in vivo; parameters: species or system Sprague Dawley rats; settings: rat
Protocol: Sprague Dawley rats (obtained from Taconic, n=22, male, healthy, weight 287±25 g) were used for ex vivo organ distribution assessment of biodistribution and dosimetry.
Five MBq of [^68Ga]Ga-1 (n=10) (corresponding to 5-10 μg) in phosphate-buffered saline (PBS, pH 7.4) was injected intravenously as a bolus to conscious rats. The animals were euthanized by a CO2—O2 mixture 10, 20, 40, 60 and 120 minutes post-injection. The radioactivity of the excised organs was measured in a gamma counter. Samples from blood, heart, lung, liver, spleen, adrenal glands, kidneys, intestines, with or without contents, muscle, testis, bone, brain, pancreas, urine bladder and bone marrow were collected. The remaining carcass was also measured in order to monitor the radioactivity elimination and recovery. The radioactivity readings were decay-corrected to the time of the injection, and the results were expressed as standardized uptake values (SUV).
The biodistribution of [^68Ga]Ga-1 ([^68Ga]Ga—NH—(CH2CH2O)2—CH2—C(O)-LRELHLNNN—OH) was carried out as described above.

[5] = mouse, in vivo; cited from earlier work
[6] = rat, in vivo; cited from earlier work
[7] = male, Sprague Dawley, iv, 5 MBq, total radioactivity

For `CC(C)C[C@H](NC(=O)COCCOCCNC(=O)CN1CCN(CC(=O)O)CCN(CC(=O)O)CCN(CC(=O)O)CC1)C(=O)N[C@@H](CCCNC(=N)N)C(=O)N[C@@H](CCC(=O)O)C(=O)N[C@@H](CC(C)C)C(=O)N[C@@H](Cc1c[nH]cn1)C(=O)N[C@@H](CC(C)C)C(=O)N[C@@H](CC(N)=O)C(=O)N[C@@H](CC(N)=O)C(=O)N[C@@H](CC(N)=O)C(=O)O` [Compound 1, DOTA-NH—(CH2CH2O)2—CH2—C(O)-L-R-E-L-H-L-N—N—N—OH], the “% Purity after 1 day” value ([1]; 4° C.) was >95%, the “% Purity after 1 day” value ([1]; 23° C.) was >96% and the “% Purity after 1 day” value ([2]; 4° C.) was >99%. For the same compound, the “% Purity after 7 days” value ([2]; 4° C.) was >99%, the “% Purity after 14 days” value ([2]; 4° C.) was >99% and the “% Purity after 1 day” value ([2]; 23° C.) was >99%. The “% Purity after 7 days” value ([2]; 23° C.) was >98%, the “% Purity after 14 days” value ([2]; 23° C.) was >97% and the “% Purity after 1 day” value ([3]; 4° C.) was 100%. The “% Purity after 7 days” value ([3]; 4° C.) was >98%, the “% Purity after 14 days” value ([3]; 4° C.) was >96% and the “% Purity after 1 day” value ([3]; 23° C.) was >99%. For the same compound, the “% Purity after 7 days” value ([3]; 23° C.) was >98% and the “% Purity after 14 days” value ([3]; 23° C.) was >97%.
With `CC(C)C[C@H](NC(=O)COCCOCCNC(=O)CN1CCN(CC(=O)O)CCN(CC(=O)O)CCN(CC(=O)O)CC1)C(=O)N[C@@H](CCCNC(=N)N)C(=O)N[C@@H](CCC(=O)O)C(=O)N[C@@H](CC(C)C)C(=O)N[C@@H](Cc1c[nH]cn1)C(=O)N[C@@H](CC(C)C)C(=O)N[C@@H](CC(N)=O)C(=O)N[C@@H](CC(N)=O)C(=O)N[C@@H](CC(N)=O)C(=O)O` [[^68Ga]Ga-1, [^68Ga]Ga-DOTA-NH—(CH2CH2O)2—CH2—C(O)-LRELHLNNN—OH, metal not drawn] the SUV at 1 h [4, 7] was < 1 SUV, the SUV at 2 h [4, 7] was 1 SUV and the “SUV Kidney” value [4] was 1.7. The “SUV Liver” value [4] was 0.7.
For DOTA-L-R-E-L-H-L-N—N—N—OH [Compound 12], the “% Purity after 1 day” value ([1]; 4° C.) was >98%, the “% Purity after 1 day” value ([1]; 23° C.) was >98% and the “% Purity after 1 day” value ([2]; 4° C.) was >99%. The “% Purity after 7 days” value ([2]; 4° C.) was >99%, the “% Purity after 1 day” value ([2]; 23° C.) was >99% and the “% Purity after 7 days” value ([2]; 23° C.) was >96%. The “% Purity after 1 day” value ([3]; 4° C.) was >99%, the “% Purity after 7 days” value ([3]; 4° C.) was >99% and the “% Purity after 1 day” value ([3]; 23° C.) was >99%. The “% Purity after 7 days” value ([3]; 23° C.) was >95%.
In the case of “DOTA-NH—(CH2CH2O)2—CH2—C(O)-L-R-E-L-H—V-N—N—N—OH [Compound 6]”, the “% Purity after 1 day” value ([1]; 4° C.) is reported as >99%, the “% Purity after 1 day” value ([1]; 23° C.) is reported as >99% and the “% Purity after 1 day” value ([2]; 4° C.) is reported as >99%. For the same compound, the “% Purity after 7 days” value ([2]; 4° C.) was >99%, the “% Purity after 1 day” value ([2]; 23° C.) was 100% and the “% Purity after 7 days” value ([2]; 23° C.) was >99%. The “% Purity after 1 day” value ([3]; 4° C.) was >99%, the “% Purity after 7 days” value ([3]; 4° C.) was >99% and the “% Purity after 1 day” value ([3]; 23° C.) was >99%. The “% Purity after 7 days” value ([3]; 23° C.) was >99%.
For “DOTA-NH—(CH2CH2O)3—CH2—C(O)-L-R-E-L-H-L-N—N—N—OH [Compound 11]”, the “% Purity after 1 day” value ([1]; 4° C.) was >99%, the “% Purity after 1 day” value ([1]; 23° C.) was >98% and the “% Purity after 1 day” value ([2]; 4° C.) was >99%. The “% Purity after 7 days” value ([2]; 4° C.) was >97%, the “% Purity after 1 day” value ([2]; 23° C.) was >99% and the “% Purity after 7 days” value ([2]; 23° C.) was >96%. For the same compound, the “% Purity after 1 day” value ([3]; 4° C.) was >99%, the “% Purity after 7 days” value ([3]; 4° C.) was >99% and the “% Purity after 1 day” value ([3]; 23° C.) was >99%. For the same compound, the “% Purity after 7 days” value ([3]; 23° C.) was >99%.
In the case of “H2N-L-R-E-L-H-L-N—N—N—K(DOTA-NH—(CH2CH2O)2—CH2—C(O))—NH2 [Compound 13]”, the “% Purity after 1 day” value ([1]; 4° C.) is reported as >99%, the “% Purity after 1 day” value ([1]; 23° C.) is reported as >99% and the “% Purity after 1 day” value ([2]; 4° C.) is reported as 100%. For the same compound, the “% Purity after 7 days” value ([2]; 4° C.) was 100%, the “% Purity after 1 day” value ([2]; 23° C.) was 100% and the “% Purity after 7 days” value ([2]; 23° C.) was 100%. The “% Purity after 1 day” value ([3]; 4° C.) was >99%, the “% Purity after 7 days” value ([3]; 4° C.) was >99% and the “% Purity after 1 day” value ([3]; 23° C.) was >99%. For the same compound, the “% Purity after 7 days” value ([3]; 23° C.) was >99%.
In the case of “[^68Ga]Ga-DOTA-CBP8 [Comparative Tracer 1]”, the “SUV Kidney” value [5] is given as 10 and the “SUV Liver” value [5] is given as 0.4.
In the case of “[^68Ga]Ga-NODAGA-Collagelin [Comparative Tracer 3]”, the “SUV Kidney” value [6] is given as 11.1 and the “SUV Liver” value [6] is given as 0.8.
For “[^68Ga]Ga-NOTA-Collagelin [Comparative Tracer 2]”, the “SUV Kidney” value [6] is listed as 6.2, the “SUV Liver” value [6] is listed as 0.5 and the “SUV Kidney” value [5] is listed as 10.

Source: patent US20230295227A1, “COMPOUNDS FOR USE IN DIAGNOSIS AND/OR MONITORING OF FIBROSIS” (ANTAROS TRACER AB, priority 2020, published 2023)
